This test addresses T1, human RhoD (residues 8-194) with the Q75L mutation, bound to GMP-PNP (human, UniProt O00212 8-194, Q75L).
T1 construct: Loaded with the GTP analogue GMP-PNP and Mg2+ before crystallisation; His6 tag removed with human rhinovirus 3C protease; also called GMP-PNP-loaded RhoD; source: E. coli BL21 (DE3), purified (HisTrap, Resource Q, Superdex 75); not shown: His6, N-terminal, cleaved
T1 sequence (looked up): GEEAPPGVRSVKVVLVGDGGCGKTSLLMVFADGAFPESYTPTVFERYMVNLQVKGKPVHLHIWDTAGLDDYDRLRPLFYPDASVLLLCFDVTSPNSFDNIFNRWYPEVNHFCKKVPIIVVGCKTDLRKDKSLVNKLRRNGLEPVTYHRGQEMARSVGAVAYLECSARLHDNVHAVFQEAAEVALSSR
Briefly: crystal structure; Plexin B2 (1274-1842) and GMP-PNP-loaded RhoD mixed at 1:1 molar ratio, 6 mg/mL total; crystals grown over a month at 20 °C in 0.2 M MgCl2, 22 % PEG3350, 100 mM MIB pH 6.8; plexin B2 degraded to the RBD in the drops; 3.1 Å, molecular replacement. The settings on record: both partners purified.

B1: mouse plexin B2 Rho GTPase binding domain (RBD) (domain or fragment, UniProt B2RXS4 1463-1565, looked up)
chain: EYAPLTVSVIVQDEGIDAIPVKVLNCDTISQVKEKIIDQVYRTQPCSCWPKPDSVVLEWRPGSTAQILSDLDLTSQREGRWKRINTLMHYNVRDGATLILSKV
notes: Plexin B2, mouse; Expressed as the intracellular region without the juxtamembrane region (residues 1274-1842); it degraded in the crystallization drops and the crystal held only the RBD, of which residues 1463-1509 and 1510-1565 are described in the model; In the crystal two RBD chains form a domain-swapped dimer (swap between residues 1509 and 1510), which the authors regard as a crystallization …
With B1, the binding result is “binds”.

For the origin of these results see article doi:10.1101/2020.11.19.389494, “The structural mechanism underlying the antithetic effect of homologous RND1 and RhoD GTPases in plexin regulation” (bioRxiv, 2020).
